Results taken from the DeepSol protein solubility set.

Experiment: soluble on expression in E. coli; label from the status in PepcDB or PDB records

Sequence	soluble on expression in E. coli
QPLPSAALRRCPPPARVGGRWVSAEKVNEGGSGGGGSQRLTRRARSTARVPAPGTMDAPRASAAKPPTGRKMKARAPPPPGKAATLHVHSDQKPPHDGALGSQQNLVRMKEALRASTMDVTVVLPSGLEKRSVLNGSHAMMDLLVELCLQNHLNPSHHALEIRSSETQQPLSFKPNTLIGTLNVHTVFLKEKVPEEKVKPGPPKVPEKSVRLVVNYLRTQKAVVRVSPEVPLQNILPVICAKCEVSPEHVVLLRDNIAGEELELSKSLNELGIKELYAWDNRRETFRKSSLGNDETDKEKKKFLGFFKVNKRSNSKGCLTTPNSPSMHSRSLTLGPSLSLGSISGVSVKSEMKKRRAPPPPGSGPPVQDKASEKVSLGSQIDLQKKKRRAPAPPPPQPPPPSPLIPNRTEDKEENRKSTMVSLPLGSGSHCSPDGAPQVLSEAEETVSVGSCFASEDTTEDSGVMSSPSDIVSLDSQQDSMKYKDKWATDQEDCSDQDLAGTPDLGPQKSPLWEKNGSENSHLRTEKAVTASNDEEDLLIAGEFRKTLAELDEDLEEMEDSYETDTSSLTSSIHGASNHCPQDAMIPHGDTDAIPVTFIGEVSDDPVDSGLFSNRNNNAGSFDSEGVASRRDSLAPLQAEHSQPHEKAREEVPALHPASHDVGKGIRVALSNISKDGNLMETAPRVTSFASNLHTDNLNAKVKDKVYGCADGERTQATERVNSQPVNEKDSNDKNAALAPTSWHQRGQNPGKSYRLKHGLTTYKIIPPKSEMRCYDRDVSLSTGAIKIDELGNLVSPHATGIRIISLSSSVPEAESQPIGKVREFWRCNSVEKHLGRPSESSARGPPSTPVPTQTQNPESRLQADPKPISPQQKSAHHEGRNPLGEGRNQPPTMGMGHVRVPAAHTTEVTFLKPQRRTSSQYVASAIAKRIGAPKVHADVVRPHGYAEKGYAGKAPVLAAPPVTVKDDRTSSPHSETQGWKDGAQWPCVTPPNNHGEDLAVGAPPRGEVIGPHRKLSTQDRPAAIHRSSCFSLVQSSQRDRVSVGQSCGFSGKQSTSSQEASSASEPRRAPDGTDPPPPHTSDTQACSRELVNGSVRAPGHGEPSHPPGGSGTESHILLEREEKPSVFSTDGNETDSIWPPSIFGPKKKFKPVVQRPVPKDTSLHSALMEAIHSAGGKDRLRKTAEHTGEGRPAKLSYTEAEGERSALLAAIRGHSGTCSLRKVASSASEELQSFRDAALSAQGSESPLLEDLGLLSPPAIPPPPPPPSQALSAPRTASRFSTGTLSNTADARQALMDAIRSGTGAARLRKVPLLV	soluble
QQKRAFEYEIRFYTGNDPLDVWDRYISWTEQNYPQGGKESNMSTLLERAVEALQGEKRYYSDPRFLNLWLKLGRLCNEPLDMYSYLHNQGIGVSLAQFYISWAEEYEARENFRKADAIFQEGIQQKAEPLERLQSQHRQFQARVSRQTLLALEKEEEEEVFESS	soluble
QSFWEEIAPPFISNEPNVKYIIPNMGIDSKGTIYVTVTKRIQQGANYTSEQLGMYYRPLGDNEQWWKHDPYFDDKIVADIQTDAYGRVYVCTTSSRDQEYQLYINEQNEWRCIFKTSVSTYEHGMAVFRSSTGVTYIGTRHHIFASGVNDFEFNTIYEDSTPMSCRFAEATNSGTIYLALMHETTMSTTILTYQNGEFVDISESELSNSIIASMCSNKEGD	not soluble
QSILQDLFLLLIKFPKEEKTVEVFDTSPKIQLSNYEQYRQDALLAKAEGEQNKINTVLSYTEKTLAPYVVESELSNLCTQISHFLSSDWKEEECREIKISSQLKSIDLMHFGWNIAQPFGKSRKEISTFLKYTFAHALEDVEVSTLQRKLTNTEGKFLIPLQEKLSTESYSSS	not soluble
QTNNDEELQDMSDPLAVYTQAGFGITDKGANIKIGQTYQSSQPGTMAMNIIEMKGIGGELFGIRDNDDPMYANVDDSIDSFRLRNFQVEVAKGLGRQLDVNYDVDNDKLDASYSFIQGLPK	not soluble
QVINTFDGVADYLQTYHKLPDNYITKSEAQALGWVASKGNLADVAPGKSIGGDIFSNREGKLPGKSGRTWREADINYTSGFRNSDRILYSSDWLIYKTTDAYQTFTKIRSSSMGVCPKILKKCRRDSDCLAGCVCGPNGFCGS	soluble
QVKDFVIEPPIKNNLHIYKTFGVFGGKEYSANSMYLVTKKGVVLFDVPWEKVQYQSLMDTIKKRHNLPVVAVFATHSHDDRAGDLSFFNNKGIKTYATAKTNEFLKKDGKATSTEIIKTGKPYRIGGEEFVVDFLGEGHTADNVVVWFPKYNVLDGGCLVKSNSATDLGYIKEANVEQWPKTINKLKAKYSKATLIIPGHDEWKGGGHVEHTLELLNKK	soluble
QVQLQESGPGLVRPSQTLSLTCTVSGFSLTGYGVNWVRQPPGRGLEWIGMIWGDGNTDYNSALKSRVTMLKDTSKNQFSLRLSSVTAADTAVYYCARERDYRLDYWGQGSLVTVSSG	soluble
RCIKLYRARKGNAAVKRHMRDTLSLNDAVEKVRAVDAPLSKLAQEALQSYRNYRRNEASELAQALPLNEYLVIQIRNSMAQIMRRFD	not soluble
RDSSDDWEIPDGQITVGQRIGSGSFGTVYKGKWHGDVAVKMLNVTAPTPQQLQAFKNEVGVLRKTRHVNILLFMGYSTKPQLAIVTQWCEGSSLYHHLHASETKFEMKKLIDIARQTARGMDYLHAKSIIHRDLKSNNIFLHEDNTVKIGDFGLATVKSRWSGSHQFEQLSGSILWMAPEVIRMQDSNPYSFQSDVYAFGIVLYELMTGQLPYSNINNRDQIIEMVGRGSLSPDLSKVRSNCPKRMKRLMAECLKKKRDERPSFPRILAEIEELARELSG	soluble
REIGENTYIVEGSMTLNDFNEHFDTELESDDVDTIAGYYLTGVGAIPTQEVKEHYEVINKDKRLEFINDKVKDGRVTKLKVIITAAPEEAGE	not soluble
REQGFMFKKELGIESMEDLIEKIRYYKIINRNKGSGTRILFDKFLKENDIDKNSINGYDIEAKTHSAVGAAVSMGKAQIGLGISTISDHYDLEFIPIADENYDLLIPKEKLYDEDIIKFIETLKNEELPFKKSKDTGKIIYGC	not soluble
RERLLSEAKATLQNYVAIAMTAIKPLYDAAAPGDEAARANAIKLLSAVSYGKDGYLFGYDSQVVRIFRSTSPDGLGKSFVDARDANGVYINR	not soluble
RETFKVLLQGVPDGIDLEGLKTDILSLPHIRSVHDIHLWTLDGESHVMTIHVVYCPDDFSSPQAVFDMKESVREKCSAHGIRHATIELDPEGCSCGMESC	not soluble
RETFNYMLPGAGVRGAAMARTAGRWGERVVSHNATFKLLTDLRIFFFKKLAPLIPGRVSTMRDADLLNRLVADVDAMDHVYLR	not soluble
RGGSFAKSWRPMTMSYANLSVDKVEHRALVLNTPYSIIRTIGKQGLEEKRFYASEKELEQVFNPIHHLATDTTARFSQLRGRNVMVIIIESFARQYVGRLNQDIPDYKGYTPCFDSISQKGYLFEQAFANGRKSIDAMPSILSSLPSLRSHFITSHYSGNEIEGLGTALGRIGYQSIFLHGAPNGSMGFDAFVKQAGYKRYFGKTEYAHDEDFDGVWGIWDEPFLLHAVDELSRMKQPFVGTLFTLSSHEPFHIPSHREGLFPNEGEPLVQCIGYTDHALGEFFRKASRQTWFENTLFVITADHASGDLRPEYRSAVGR	not soluble
RGRGAAAWRILRCRRLPEPSPFLTQPNLAQSQPPAPVPVTDPSVTMHPAVFLSLPDLRCSLLLLVTWVFTPVTTEITSLDTENIDEILNNADVALVNFYADWCRFSQMLHPIFEEASDVIKEEFPNENQVVFARVDCDQHSDIAQRYRISKYPTLKLFRNGMMMKREYRGQRSVKALADYIRQQKSDPIQEIRDLAEITTLDRSKRNIIGYFEQKDSDNYRVFERVANILHDDCAFLSAFGDVSKPERYSGDNIIYKPPGHSAPDMVYLGAMTNFDVTYNWIQDKCVPLVREITFENGEELTEEGLPFLILFHMKEDTESLEIFQNEVARQLISEKGTINFLHADCDKFRHPLLHIQKTPADCPVIAIDSFRHMYVFGDFKDVLIPGKLKQFVFDLHSGKLHREFHHGPDPTDTAPGEQAQDVASSPPESSFQKLAPSEYRYTLLRDRDEL	soluble
RHMASIEKVANCIRCLAADIVQGGKSGHPGTPMGMAPMSAVLWTEVMKYNSQDPDWVDRDRFVMSNGHGCALQYALLHMAGYNLTMDDLKGFRQDGSRTPGHPERFVTPGVEVTTGPLGQGIANAVGLAIAEAHLAATFNRPGYNIVDHYTYVYCGDGCLMEGVCQEALSLAGHLALEKLIVIYDSNYISIDGSTSLSFTEQCHQKYVAMGFHVIEVKNGDTDYEGLRKALAEAKATKGKPKMIVQTTTIGFGSSKQGTEKVHGAPLGEEDIANIKAKFGRDPQKKYDVDDDVRAVFRMHIDKCSAEQKAWEELLAKYTAAFPAEGAAFVAQMRGELPSGWEAKLPTNSSAIATRKASENCLAVLFPAIPALMGGSADLTPSNLTRPASANLVDFSSSSKEGRYIRFGVREHAMCAILNGLDAHDGIIPFGGTFLNFIGYALGAVRLAAISHHRVIYVATHDSIGVGEDGPTHQPVELVAALRAMPNLQVIRPSDQTETSGAWAVALSSIHTPTVLCLSRQNTEPQSGSSIEGVRHGAYSVVDVPDLQLVIVASGSEVSLAVDAAKALSGELRVRVVSMPCQELFDAQPDTYRQAVLPAGVPVVSVEAYVSFGWEKYSHAHVGMSGFGASAPAGVLYKKFGITVEEVVRTGRELAKRFPDGTAPLKNSSFSKM	soluble
RIVCQFSCGAASAVATKLALADYSATHDVQILNAYLVNEHADSLRFLADCEAWFEQPVTVLRDEKYGADIIEVFRRERFIKKQYGASCTQLLKRRLLDIWKLPGDVMVFGYTAEEADRLEDFRERNPDRPVIAPLIDRGLGKEDCKAMIQRAGIELPVMYRMGYDNANCI	not soluble
RLAVGDEITAAGELLAGGKILAIKGIGGFHLAVDASNEAAVRRLRSRKGREEKPFAVMVRDLAAARALCDISPEEKAALASPQAPIVLLRARQGLSLAPSIAPGNDRLGVMLPYSPLHWLLLREGPKVLVMTSANFSEEPLVADNAEALERLAGIADAFLMHDRPIARRCDDSVVMSMAGAVRLIRRSRGYAPAPVRLAES	not soluble
RLLGAPVPVDENDEGLQRALQFAMAEYNRASNDKYSSRVVRVISAKRQLVSGIKYILQVEIGRTTCPKSSGDLQSCEFHDEPEMAKYTTCTFVVYSIPWLNQIKLLESKCQ	soluble
RQSVQTVLPESTGNNTLSLRDSVCRDLFQLFSSPHSPLPILLVSGMPEWQGHNQSDKLLQSWYCRQLRSALLFHEPRIAALQVNLKEAYCHELAISLEMMLYHDDEPLTFDLVWQKG	not soluble
RRENARRFDRKQYDFVDIDECAIQTKTYPGSDHDMAQDWLQKQMMILKPKYREPLLLSLVAGLNHDEIAQALRLNHNTVATRLFRARNQLIAQQGNH	not soluble
RRRFDEKRREMLMGKLEEINQKRIAEALESEKKSLEKVSRSDQLRIDLITNVSHDLKTPLTSMVGYIELIKKEELSDLVRDYVDVLSERAEKLKEMINSLFSLAKASSGNIELHPEKFELNRLVEQIFADMHDHVKESELQFVKQFTEENTEIISDNMYFYRICQNLIENALKYSAKHTRVFVKTYQKESSNHLCLEITNTAGYPMDFTKEEIIERFFRGDKQRSSEGNGLGLAIVSTYVKALGGEFDIKIDCDQFKACVEMPLSAITIT	not soluble
RSAEALFEKAVTPSDVGKLNRLVIPKHHAEKHFPLPSSNVSVKGVLLNFEDVNGKVWRFRYSYWNSSQSYVLTKGWSRFVKEKNLRAGDVVSFSRSNGQDQQLYIGWKSRSGSDLDA	soluble
